28 molecules from US20240050583A1 (HARBOUR BIOMED SHANGHAI, published 2024) can be followed below.

T1: human BCMA (human, UniProt Q02223 1-184)
T1 construct: whole, on cells; also called hBCMA; tumor necrosis factor receptor superfamily member 17
T1 sequence (looked up): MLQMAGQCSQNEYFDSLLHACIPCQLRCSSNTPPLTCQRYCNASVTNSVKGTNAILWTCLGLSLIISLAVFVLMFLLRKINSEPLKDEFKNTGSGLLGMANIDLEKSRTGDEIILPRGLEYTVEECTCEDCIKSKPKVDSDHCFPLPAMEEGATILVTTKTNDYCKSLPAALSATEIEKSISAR

B1: HCAb PR004433 (antibody, human IgG1, V domains shown)
VH: EVQLVETGGGLIQPGGSLRLSCAASGFTVSDSYMTWVRQAPGKGLEWVSVIFSGGRTYYSDSVKGRFTISRDNAKNTLYLQMNSLRAEDTALYYCARRNYDDTRGTDVFDIWGQGTMVTVSS
notes: also called PR001046_R2_4G10; anti-BCMA HCAb antibody PR004433
B2: PR004433-PROTAC (antibody, human IgG1, V domains shown)
VH: B1 VH
modifications: BRD4 protein degrading agent (PROTAC GNE-987 with a disulfide-containing linker) coupled by a disulfide bond to cysteine, Cys-220 site (Eu numbering) as the filing aims
notes: Coupling product without HIC purification; DAR=2 component 66.4%, naked antibody 28.4%; also called coupling product PR004433-PROTAC
B3: PR006031 (antibody, V domains shown)
VH: B1 VH
notes: also called PR004433 variant molecule; Hinge3_5
B4: PR006316 (antibody, V domains shown)
VH: B1 VH
notes: also called PR004433 variant molecule; Hinge9_5
B5: PR006042 (antibody, V domains shown)
VH: B1 VH
notes: also called PR004433 variant molecule; Hinge6_18
B6: HCAb PR006468 (antibody, V domains shown)
VH: B1 VH
B7: PR006319 (antibody, V domains shown)
VH: B1 VH
notes: also called PR004433 variant molecule; Hinge10_3
B8: PR006314 (antibody, V domains shown)
VH: B1 VH
notes: also called PR004433 variant molecule; Hinge8_18
B9: PR006468-ADC (antibody, V domains shown)
VH: B1 VH
modifications: mc-vc-PAB-MMAE coupled to Cys1 (first cysteine) of the mouse IgG2c hinge region (90.8% of the site coupled)
notes: Purified coupling product of PR006468 with mc-vc-PAB-MMAE, DAR=2 component 95.5%; also called coupling product PR006468-ADC
B10: PR006036 (antibody, V domains shown)
VH: B1 VH
notes: also called PR004433 variant molecule; Hinge4_15
B11: PR006310 (antibody, V domains shown)
VH: B1 VH
notes: also called PR004433 variant molecule; Hinge7_2
B12: PR006038 (antibody, V domains shown)
VH: B1 VH
notes: also called PR004433 variant molecule; Hinge5_12
B13: PR006313 (antibody, V domains shown)
VH: B1 VH
notes: also called PR004433 variant molecule; Hinge8_8
B14: PR006039 (antibody, V domains shown)
VH: B1 VH
notes: also called PR004433 variant molecule; Hinge5_13
B15: PR006040 (antibody, V domains shown)
VH: B1 VH
notes: also called PR004433 variant molecule; Hinge6_4
B16: PR006032 (antibody, V domains shown)
VH: B1 VH
notes: also called PR004433 variant molecule; Hinge3_6
B17: PR006034 (antibody, V domains shown)
VH: B1 VH
notes: also called PR004433 variant molecule; Hinge4_1
B18: PR006317 (antibody, V domains shown)
VH: B1 VH
notes: also called PR004433 variant molecule; Hinge9_7
B19: PR006318 (antibody, V domains shown)
VH: B1 VH
notes: also called PR004433 variant molecule; Hinge9_14
B20: PR006037 (antibody, V domains shown)
VH: B1 VH
notes: also called PR004433 variant molecule; Hinge5_2
B21: PR006321 (antibody, V domains shown)
VH: B1 VH
notes: also called PR004433 variant molecule; Hinge10_7
B22: PR006315 (antibody, V domains shown)
VH: B1 VH
notes: also called PR004433 variant molecule; Hinge8_20
B23: PR006035 (antibody, V domains shown)
VH: B1 VH
notes: also called PR004433 variant molecule; Hinge4_6
B24: PR006033 (antibody, V domains shown)
VH: B1 VH
notes: also called PR004433 variant molecule; Hinge3_18
B25: PR006041 (antibody, V domains shown)
VH: B1 VH
notes: also called PR004433 variant molecule; Hinge6_15
B26: PR006312 (antibody, V domains shown)
VH: B1 VH
notes: also called PR004433 variant molecule; Hinge7_19
B27: PR006320 (antibody, V domains shown)
VH: B1 VH
notes: also called PR004433 variant molecule; Hinge10_5
B28: PR005744-ADC (bispecific antibody, human IgG1, kappa)
chain 1: QVQLVESGGGVVQPGRSLRLSCAATGFTFSSYGMYWVRQAPGKGLEWVAAIWNDGSNNYYADSVKGRFTISRDDSKNTLNLQMNSLRAEDTAMYYCARDRLPMASLRYFDWLGVMDAWGQGTSVTVSSASTKGPSVFPLAPSSKSTSGGTAALGCLVKDYFPEPVTVSWNSGALTSGVHTFPAVLQSSGLYSLSSVVTVPSSSLGTQTYICNVNHKPSNTKVDKKVEPKSC
chain 2: not shown
modifications: mc-vc-PAB-MMAE coupled to Cys-220 (Eu numbering) of the linker peptide (99.07% of the site coupled)
notes: Coupling product of PR005744 with mc-vc-PAB-MMAE; also called coupling product PR005744-ADC

This assay deals with T1, human BCMA. Briefly: flow cytometry (FACS) on NCI-H929 cells. In general terms: A flow cytometer gives signals particle by particle.
Consider B1, for which the binding result is reported as “binds”.

In the case of B2, the binding result is on record as “binds”.

As to B3, the binding result is reported as “binds”.

In the case of B4, the binding result is listed as “binds”.

Turning to B5, the binding result is listed as “binds”.

B6: the binding result is given as “binds”.

With B7, the binding result is given as “binds”.

B8: the binding result was “binds”.

Take B9: the binding result is reported as “binds”.

Take B10: the binding result is “binds”.

As for B11, the binding result is listed as “binds”.

B12: the binding result was “binds”.

Turning to B13, the binding result is given as “binds”.

As for B14, the binding result is on record as “binds”.

On to B15, for which the binding result is “binds”.

In the case of B16, the binding result is recorded as “binds”.

Consider B17, for which the binding result is recorded as “binds”.

As for B18, the binding result is “binds”.

With B19, the binding result is reported as “binds”.

As to B20, the binding result is recorded as “binds”.

As for B21, the binding result was “binds”.

Regarding B22, the binding result is reported as “binds”.

For the molecule B23, the binding result is listed as “binds”.

In the case of B24, the binding result is on record as “binds”.

For the molecule B25, the binding result is on record as “binds”.

For the molecule B26, the binding result is listed as “binds”.

Take B27: the binding result is listed as “binds”.

Take B28: the binding result is reported as “binds”.
